Experimental data published in US20230243823, “BIOMARKER SENSOR-BASED DETECTION OF DISEASE-SPECIFIC BIOMARKERS” (FORSCHUNGSZENTRUM JÜLICH GMBH, published 2023).

Target: lactate dehydrogenase (PfLDH) (Plasmodium falciparum, UniProt Q76NM3 Q76NM3:1-316)
Assay: sandwich plasmon-enhanced fluorescence apta-immunosensor; PfLDH captured by anti-pLDH on AuNPs from diluted human blood; 0.1 uM aptamer in 10 mM PBS with 1 mM MgCl2 pH 7.1; signal orders of magnitude above PvLDH
Details: tags: obtained by bacterial expression; chain copies: 4
Description: Uninfected human blood was diluted 1:100 in 25 mM Tris buffer to reduce sample turbidity. The desired amount of Plasmodium falciparum lactate dehydrogenase (P<DH) was added to 1 ml of a diluted solution of the sample to obtain analyte concentrations ranging from 1 fM to 1 μm (based on the undiluted blood). The functionalised substrates were incubated with 1 ml of contaminated blood solution for 2 hours at room temperature.
The specificity of the apta immunosensor was tested against lactate dehydrogenase of Plasmodium vivax (P<LDH), which is 90% identical to P<LDH. The P<LDH was added to uninfected human blood (diluted 1:100 in 1 mL 25 mM Tris buffer) to obtain the highest analyte concentration tested in the calibration curve (1 μM based on undiluted whole blood).

CTGGGCGGTAGAACCATAGTGACCCAGCCGTCTAC (ssDNA) [malaria 2008s aptamer]: binds.
